# Measurements reported in patent US10441663B2, “Methods for treating cancer” (Bicycle Therapeutics Limited, priority 2016, dated 2019).
# *1 amine or outer side, *2 acyl side, *3 side chain or, on linkers, in order; H or OH if unused. Where a SMILES comes first, the peptide text is derived from it. Bridges are numbered along the chain shown (N, C = ends). [ ]: non-standard residue; d: D form. The star is where a group is joined. X1 = COc1cc2cc(c1Cl)N(C)C(=O)C[C@H](OC(=O)[C@H](C)N(C)C(=O)CCSSC(C)CCC(=O)*)[C@]1(C)O[C@H]1[C@H](C)[C@@H]1C[C@@](O)(NC(=O)O1)[C@H](OC)/C=C/C=C(\C)C2; 1Nal = N[C@@H](Cc1cccc2ccccc12)C(=O)O; TBMB = c1c(C[*:1])cc(C[*:3])cc1C[*:2]; Tle = CC(C)(C)[C@H](N)C(=O)O; βAla = NCCC(=O)O; Sar = CNCC(=O)O
# Test system: EBC-1 xenograft
# Experiment: Efficacy of BT1718 in EBC-1 xenograft model (Example 1)
# Assay type: in vivo, Mus Musculus
# Parameters: key to Best response at 10 mg/kg: CR complete response; PR partial response
# Conditions: for Tumor Size (mm^3): Mean ± SEM
# Experimental: The objective of this study was to evaluate the anti-tumor efficacy of BT1718 in EBC-1 xenograft model in female BALB/c nude mice.
# The EBC-1 tumor cells were maintained in vitro as a monolayer culture in EMEM medium supplemented with 10% heat inactivated fetal bovine serum at 37° C. in an atmosphere of 5% CO2 in air. The tumor cells will be routinely subcultured twice weekly by trypsin-EDTA treatment. The cells growing in an exponential growth phase will be harvested and counted for tumor inoculation.
# Each mouse was inoculated subcutaneously at the right flank with EBC-1 tumor cells (10×10^6) in 0.2 ml of PBS for tumor development. The animals were randomized and treatment was started when the average tumor volume reaches approximately 165 mm^3 for the efficacy study.
# All the procedures related to animal handling, care and the treatment in the study were performed according to the guidelines of the Association for Assessment and Accreditation of Laboratory Animal Care (AAALAC). At the time of routine monitoring, the animals were daily checked for any effects of tumor growth and treatments on normal behavior such as mobility, food and water consumption (by looking only), body weight gain/loss (body weights were measured every day), eye/hair matting and any other abnormal effect as stated in the protocol. Death and observed clinical signs were recorded on the basis of the numbers of animals within each subset.
# The major endpoint was to see if the tumor growth could be delayed or mice could be cured. Tumor size was measured three times weekly in two dimensions using a caliper, and the volume was expressed in mm^3 using the formula: V=0.5 a×b^2 where a and b are the long and short diameters of the tumor, respectively. The tumor size was then used for calculations of T/C value. The T/C value (in percent) is an indication of antitumor effectiveness; T and C are the mean volumes of the treated and control groups, respectively, on a given day.
# TGI was calculated for each group using the formula: TGI (%)=[1−(Ti−T0)/(Vi−V0)]×100; Ti is the average tumor volume of a treatment group on a given day, T0 is the average tumor volume of the treatment group on the day of treatment start, Vi is the average tumor volume of the vehicle control group on the same day with Ti, and V0 is the average tumor volume of the vehicle group on the day of treatment start.
# Summary statistics, including mean and the standard error of the mean (SEM), are provided for the tumor volume of each group at each time point.
# Statistical analysis of difference in tumor volume among the groups was conducted on the data obtained at the best therapeutic time point after the final dose.
# A one-way ANOVA was performed to compare tumor volume among groups, and when a significant F-statistics (a ratio of treatment variance to the error variance) was obtained, comparisons between groups were carried out with Games-Howell test. All data were analyzed using Prism. P<0.05 was considered to be statistically significant.
smiles,measurement,setting,value
COc1cc2cc(c1Cl)N(C)C(=O)C[C@H](OC(=O)[C@H](C)N(C)C(=O)CCSSC(C)CCC(=O)NCCC(=O)N(C)CC(=O)N(C)CC(=O)N(C)CC(=O)N(C)CC(=O)N(C)CC(=O)N(C)CC(=O)N(C)CC(=O)N(C)CC(=O)N(C)CC(=O)N(C)CC(=O)N[C@@H](C)C(=O)N[C@H]1CSCc3cc4cc(c3)CSC[C@H](NC(=O)[C@@H](C)NC(=O)[C@H](Cc3cccc5ccccc35)NC(=O)[C@H](CCC(=O)O)NC(=O)[C@H](CC(N)=O)NC(=O)[C@@H](C)NC1=O)C(=O)N[C@@H](CCC(=O)O)C(=O)N[C@@H](CC(=O)O)C(=O)N[C@@H](Cc1ccccc1)C(=O)N[C@@H](Cc1ccc(O)cc1)C(=O)N[C@@H](CC(=O)O)C(=O)N[C@@H](C(C)(C)C)C(=O)N[C@H](C(N)=O)CSC4)[C@]1(C)O[C@H]1[C@H](C)[C@@H]1C[C@@](O)(NC(=O)O1)[C@H](OC)/C=C/C=C(\C)C2 (some centres unmarked) [BT1718] ({X1-βAla}-[Sar][Sar][Sar][Sar][Sar][Sar][Sar][Sar][Sar][Sar]AC[dA]NE[1Nal][dA]CEDFYD[Tle]C-NH2; linker 12-18-25 via TBMB (inferred)),Tumor Volume,"4.5 mpk biw, day 21",526 ± 95 mm^3
same,Body Weight,"9 mpk qw, day 0",24.0 ± 0.4 g
same,Body Weight (% Change),"9 mpk qw, day 0",0.0%
same,Tumor Volume,"9 mpk qw, day 0",163 ± 19 mm^3
same,Body Weight,"9 mpk qw, day 2",23.2 ± 0.6 g
same,Body Weight (% Change),"9 mpk qw, day 2",−3.4 ± 0.9%
same,Tumor Volume,"9 mpk qw, day 2",182 ± 25 mm^3
same,Body Weight,"9 mpk qw, day 4",23.8 ± 0.5 g
same,Body Weight (% Change),"9 mpk qw, day 4",−0.7 ± 1.8%
same,Tumor Volume,"9 mpk qw, day 4",200 ± 28 mm^3
same,Body Weight,"9 mpk qw, day 7",24.7 ± 0.2 g
same,Body Weight (% Change),"9 mpk qw, day 7",2.8 ± 0.6%
same,Tumor Volume,"9 mpk qw, day 7",202 ± 64 mm^3
same,Body Weight,"9 mpk qw, day 9",23.8 ± 0.5 g
same,Body Weight (% Change),"9 mpk qw, day 9",−1.1 ± 0.7%
same,Tumor Volume,"9 mpk qw, day 9",187 ± 70 mm^3
same,Body Weight,"9 mpk qw, day 11",24.7 ± 0.4 g
same,Body Weight (% Change),"9 mpk qw, day 11",2.8 ± 0.9%
same,Tumor Volume,"9 mpk qw, day 11",164 ± 61 mm^3
same,Body Weight,"9 mpk qw, day 14",24.9 ± 0.4 g
same,Body Weight (% Change),"9 mpk qw, day 14",3.7 ± 0.8%
same,T/C (%),"9 mpk qw, day 14",12%
same,TGI (%),"9 mpk qw, day 14",101%
same,Tumor Volume,"9 mpk qw, day 14",154 ± 72 mm^3
same,Tumor Size (mm^3),"9 mpk qw, day 14",154 ± 72 mm^3
same,Body Weight,"9 mpk qw, day 16",24.6 ± 0.2 g
same,Body Weight (% Change),"9 mpk qw, day 16",2.3 ± 0.6%
same,Tumor Volume,"9 mpk qw, day 16",186 ± 83 mm^3
same,Body Weight,"9 mpk qw, day 18",24.8 ± 0.2 g
same,Body Weight (% Change),"9 mpk qw, day 18",3.2 ± 0.8%
same,Tumor Volume,"9 mpk qw, day 18",245 ± 119 mm^3
same,Body Weight,"9 mpk qw, day 21",24.8 ± 0.2 g
same,Body Weight (% Change),"9 mpk qw, day 21",3.1 ± 1.0%
same,Tumor Volume,"9 mpk qw, day 21",320 ± 153 mm^3
same,Body Weight,"10 mpk tiw, day 0",24.2 ± 0.4 g
same,Body Weight (% Change),"10 mpk tiw, day 0",0.0%
same,Tumor Volume,"10 mpk tiw, day 0",167 ± 11 mm^3
same,Body Weight,"10 mpk tiw, day 2",23.2 ± 0.6 g
same,Body Weight (% Change),"10 mpk tiw, day 2",−4.0 ± 1.3%
same,Tumor Volume,"10 mpk tiw, day 2",216 ± 21 mm^3
same,Body Weight,"10 mpk tiw, day 4",23.7 ± 0.5 g
same,Body Weight (% Change),"10 mpk tiw, day 4",−2.1 ± 0.9%
same,Tumor Volume,"10 mpk tiw, day 4",205 ± 24 mm^3
same,Body Weight,"10 mpk tiw, day 7",22.7 ± 0.6 g
same,Body Weight (% Change),"10 mpk tiw, day 7",−6.2 ± 0.8%
same,Tumor Volume,"10 mpk tiw, day 7",114 ± 10 mm^3
same,Body Weight,"10 mpk tiw, day 9",23.1 ± 0.4 g
same,Body Weight (% Change),"10 mpk tiw, day 9",−4.4 ± 0.3%
same,Tumor Volume,"10 mpk tiw, day 9",45 ± 4 mm^3
same,Body Weight,"10 mpk tiw, day 11",22.9 ± 0.6 g
same,Body Weight (% Change),"10 mpk tiw, day 11",−5.2 ± 1.1%
same,Tumor Volume,"10 mpk tiw, day 11",16 ± 3 mm^3
same,Body Weight,"10 mpk tiw, day 14",23.8 ± 0.5 g
same,Body Weight (% Change),"10 mpk tiw, day 14",−1.6%
same,T/C (%),"10 mpk tiw, day 14",0%
same,TGI (%),"10 mpk tiw, day 14",115%
same,Tumor Volume,"10 mpk tiw, day 14",0 ± 0 mm^3
same,Tumor Size (mm^3),"10 mpk tiw, day 14",0 ± 0 mm^3
same,Body Weight,"15 mpk biw, day 0",23.7 ± 0.3 g
same,Body Weight (% Change),"15 mpk biw, day 0",0.0%
same,Tumor Volume,"15 mpk biw, day 0",161 ± 12 mm^3
same,Body Weight,"15 mpk biw, day 2",22.7 ± 0.4 g
same,Body Weight (% Change),"15 mpk biw, day 2",−4.2 ± 0.6%
same,Tumor Volume,"15 mpk biw, day 2",173 ± 11 mm^3
same,Body Weight,"15 mpk biw, day 4",22.6 ± 0.3 g
same,Body Weight (% Change),"15 mpk biw, day 4",−4.5 ± 0.3%
same,Tumor Volume,"15 mpk biw, day 4",136 ± 10 mm^3
same,Body Weight,"15 mpk biw, day 7",22.8 ± 0.4 g
same,Body Weight (% Change),"15 mpk biw, day 7",−3.7 ± 2.5%
same,Tumor Volume,"15 mpk biw, day 7",79 ± 1 mm^3
same,Body Weight,"15 mpk biw, day 9",22.7 ± 0.2 g
same,Body Weight (% Change),"15 mpk biw, day 9",−4.3 ± 1.7%
same,Tumor Volume,"15 mpk biw, day 9",36 ± 2 mm^3
same,Body Weight,"15 mpk biw, day 11",23.4 ± 0.3 g
same,Body Weight (% Change),"15 mpk biw, day 11",−1.2 ± 0.3%
same,Tumor Volume,"15 mpk biw, day 11",12 ± 0 mm^3
same,Body Weight,"15 mpk biw, day 14",23.7 ± 0.5 g
same,Body Weight (% Change),"15 mpk biw, day 14",0.2 ± 1.4%
same,T/C (%),"15 mpk biw, day 14",0%
same,TGI (%),"15 mpk biw, day 14",115%
same,Tumor Volume,"15 mpk biw, day 14",0 ± 0 mm^3
same,Tumor Size (mm^3),"15 mpk biw, day 14",0 ± 0 mm^3
same,Body Weight,"30 mpk qw, day 0",24.6 ± 0.6 g
same,Body Weight (% Change),"30 mpk qw, day 0",0.0%
same,Tumor Volume,"30 mpk qw, day 0",166 ± 10 mm^3
same,Body Weight,"30 mpk qw, day 2",20.9 ± 0.3 g
same,Body Weight (% Change),"30 mpk qw, day 2",−14.9 ± 2.2%
same,Tumor Volume,"30 mpk qw, day 2",166 ± 22 mm^3
same,Body Weight,"30 mpk qw, day 4",21.9 ± 1.0 g
same,Body Weight (% Change),"30 mpk qw, day 4",−10.8 ± 4.3%
same,Tumor Volume,"30 mpk qw, day 4",128 ± 6 mm^3
same,Body Weight,"30 mpk qw, day 7",23.1 ± 1.0 g
same,Body Weight (% Change),"30 mpk qw, day 7",−6.2 ± 3.5%
same,Tumor Volume,"30 mpk qw, day 7",89 ± 4 mm^3
same,Body Weight,"30 mpk qw, day 9",20.8 ± 1.0 g
same,Body Weight (% Change),"30 mpk qw, day 9",−15.5 ± 3.4%
same,Tumor Volume,"30 mpk qw, day 9",47 ± 3 mm^3
same,Body Weight,"30 mpk qw, day 11",22.1 ± 0.9 g
same,Body Weight (% Change),"30 mpk qw, day 11",−10.3 ± 3.3%
same,Tumor Volume,"30 mpk qw, day 11",18 ± 2 mm^3
same,Body Weight,"30 mpk qw, day 14",24.0 ± 1.0 g
same,Body Weight (% Change),"30 mpk qw, day 14",−2.4 ± 3.2%
same,T/C (%),"30 mpk qw, day 14",0%
same,TGI (%),"30 mpk qw, day 14",115%
same,Tumor Volume,"30 mpk qw, day 14",0 ± 0 mm^3
same,Tumor Size (mm^3),"30 mpk qw, day 14",0 ± 0 mm^3
same,Best response at 10 mg/kg,"EBC-1, 10 mg/kg",CR
same,Minimally Effective Dose IV BIW,"EBC-1, dose leading to tumor-stasis",<10 mg/kg
same,body weight effect,other groups (all except 30 mg/kg qw),maintained their bodyweight well
same,treatment effect,"same total dose, schedules from daily to a single weekly dose",Effective treatment
